The record followed here is the supplement of paper PMC9170038.

For the series, the system named is MS2 coat protein. Description: apparent KD of MS2 coat protein; designed switch direction (-1 OFF switch, 1 ON switch): -1; higher = weaker reporter binding. A digest of the protocol:
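Normalised cluster fluorescence was curve-fitted, and each design's median over clusters is its apparent KD. Before this, SNAP-549-labelled MS2 coat protein was titrated from 0.7 or 1.5 nM, doubling to 3 µM, over RNA switches transcribed on Illumina chips by stalled E. coli RNA polymerase. Titrations had no input, 200 uM small-molecule ligand, or an oligonucleotide input, and steps lasted 0.8–1.5 h (lowest) to 10–20 min (highest).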

Where [1] appears, read: Eterna round: R95, input ligand: microRNA oligo, concentration not stated.
Setting [2] is: input ligand: microRNA oligo, concentration not stated.

In the case of “GACCCACAUGAGGAUCACCCAUGUCAGGAUAUGCAGUUGGAUGCGUCAGAUUUCCAUAGCAGAAGGGAUCUGGC [Eternabot (Original) Solution 14] (Eterna round: R97, puzzle: Exclusion 1)”, the “apparent KD of MS2 coat protein” value stood at 16.5 nM (input ligand: FMN 200 uM) and 18.2 nM (input ligand: none).

For “UUUUUGUGAGGAUAUCAGUAGUAGAACAAUAGUACUACUACUGAGAAGGCACAUGAGGAUCACCCAUGUUCCUU [Fiskers Ex 4 Super stable 44 mod 12] (puzzle: Exclusion 4)”, the “apparent KD of MS2 coat protein” value under setting [1] was found to be 14.9 nM.

With “GCAGCUUAGUUAACAGACUGUUACAUGAGGAUCACCCAUGUGCAGGAUAUGGUCUGGAUUACAGGCCAGAAGGGUACAGGCUGC [Eli exng3 - 017] (Eterna round: R96, puzzle: Exclusion NG 3)”, the “apparent KD of MS2 coat protein” value (input ligand: FMN 200 uM) was 10.8 nM, the “apparent KD of MS2 coat protein” value under setting [2] turned out to be 6.6 nM and the “apparent KD of MS2 coat protein” value (input ligand: none) is 13.4 nM.

Turning to “CGCGCGCGUGUAGGAUAUGUGUUUGGUUCGGGCGCAGAAGGACAUGAGGAUCACCCAUGUGUGUGUGUGCGCGCAGUGUGUGCG [-30, -27 kcal, 15% A] (Eterna round: R96, puzzle: Exclusion NG 1)”, the “apparent KD of MS2 coat protein” value by setting is: (input ligand: FMN 200 uM) 55 nM; under setting [2], 32.7 nM; (input ligand: none) 41.7 nM.

On to “AAUUAUUUUUGAGGAUAUGGUGGUGAAACACCACCAGAAGGCGAAAUAAACAUGAGGAUCACCCAUGUGAGCCUGAUGCUUAUG [Ex NG1 #48] (Eterna round: R96, puzzle: Exclusion NG 1)”, for which, under setting [2], the “apparent KD of MS2 coat protein” value was found to be 19.9 nM.

“CAUUAUUAUCGAGGAUAUCCUAUUGAAAUUCUGGGAGAAGGCGGACUCAACAUGAGGAUCACCCAUGUGAGACGGGUGCUAGGG [Ex NG1 #26] (Eterna round: R96, puzzle: Exclusion NG 1)”: the “apparent KD of MS2 coat protein” value under setting [2] turned out to be 19.6 nM.

For the sequence “GGCAUACCACAAGCUUUUUACAUGAGGAUCACCCAUGUGGUUUUUAGUCUUAUCCCGGGCCCGAUAUCGGGCCCGGG [-33.9, -54.7, A 19%] (Eterna round: R97, puzzle: Sensor, turn-off variant 1)”, the “apparent KD of MS2 coat protein” value is, setting by setting: (input ligand: FMN 200 uM) 36.7 nM; (input ligand: none) 38.3 nM.

On to “AGCUUUUUGCUCGUCUUAUACAUGAGGAUCACCCAUGUAUUGGACCACAUCGAUAGAUGUGGACCAAGAAGCAUGGU [Omdei Mir OFFv1 C3] (Eterna round: R97, puzzle: Sensor, turn-off variant 1)”, for which the “apparent KD of MS2 coat protein” value stood at 46.8 nM (input ligand: FMN 200 uM) and 45.2 nM (input ligand: none).

For the sequence “UAUUAGCAAGUGAGAUCCGACAUGAGGAUCACCCAUGUGCUCGUCUUAUAAGGUACUGUGACAAAAGUCACGGUACC [Elimod 2 - Jieux - Sensor, turn-off variant 1] (Eterna round: R97, puzzle: Sensor, turn-off variant 1)”, the “apparent KD of MS2 coat protein” value was found to be 200 nM (input ligand: FMN 200 uM) and 283 nM (input ligand: none).

In the case of “CCUCGUAGGGAGGAUAUCCUUUAAAUUUAAGGAGGAGAAGGCUCAACAUGAGGAUCACCCAUGUAAAAUUUAAA [-17, -14.8 kcal, A 36%] (Eterna round: R97, puzzle: Exclusion 6)”, the “apparent KD of MS2 coat protein” value is 109 nM (input ligand: FMN 200 uM) and 78.7 nM (input ligand: none).

Regarding “AGACAGUCAGGAUAUACAUGAGGAUCACCCAUGUUGAGAUGAGAAAGGGCAGGAAGAGGUAGAAGGGACAAGAA [JR_Exclu3_Sub035] (puzzle: Exclusion 3)”, the “apparent KD of MS2 coat protein” value came to 28.3 nM (Eterna round: R95, input ligand: FMN 200 uM); 19.2 nM under setting [1]; 24.8 nM (Eterna round: R95, input ligand: none).

In the case of “UACUUGUUAGGAUAUCUUACAUUUGCAUCAUAGUAACCAUUGGAGAAGGGACAUGAGGAUCACCCAUGUUUGGA [tap-tap-tappy2] (Eterna round: R97, puzzle: Exclusion 4)”, the “apparent KD of MS2 coat protein” value by setting is: (input ligand: FMN 200 uM) 32.2 nM; (input ligand: none) 31.5 nM.

For the sequence “UAUCAACAUGAGGAUCACCCAUGUGAGGAUAUCAAAACCAGAGCGGAUCUCUGGCCCAUGAGAAGGUACAUGGU [ElNandoxlusion 6 - Jieux - Exclusion 1] (Eterna round: R97, puzzle: Exclusion 1)”, the “apparent KD of MS2 coat protein” value was 111 nM (input ligand: FMN 200 uM) and 22.3 nM (input ligand: none).

For the sequence “UUUUACAUGCUGAGAUCCUACAUGAGGAUCACCCAUGUGGUCCGGUGACUUUUGUCACCGGAUUUUGCUCGUCUUGU [salish99_S_TOV1_R5_101] (Eterna round: R97, puzzle: Sensor, turn-off variant 1)”, the “apparent KD of MS2 coat protein” value reads like this: (input ligand: FMN 200 uM) 84.8 nM; (input ligand: none) 108 nM.

“GUAUAACAUGUAGGAUAUGCGUGGCGAAGCUAUGCAGAAGGACAUGAGGAUCACCCAUGUAAUAGCGUCUGCGUACAGAUGCAA [Mat - Exclusion NG 1 - Mod of JL - D90] (Eterna round: R96, puzzle: Exclusion NG 1)”: the “apparent KD of MS2 coat protein” value (input ligand: FMN 200 uM) is 134 nM, the “apparent KD of MS2 coat protein” value under setting [2] amounted to 27.9 nM and the “apparent KD of MS2 coat protein” value (input ligand: none) stood at 40.8 nM.
